From article PMC10696041

Molecular target: C-propeptide of collagen III
Assay: SPR; C-propeptide III immobilised by amine coupling on CM5; 10 mM HEPES pH 7.4, 0.15 M NaCl, 5 mM CaCl2, 0.05% P20, 25 °C

Kd: 45 nM
B1: procollagen C-proteinase enhancer-2 with N-terminal 6His-tag (natural protein)
chain: QSPERPVFTCGGILTGESGFIGSEGFPGVYPPNSKCTWKITVPEGKVVVLNFRFIDLESDNLCRYDFVDVYNGHANGQRIGRFCGTFRPGALVSSGNKMMVQMISDANTAGNGFMAMFSAAEPNERGDQYCGGLLDRPSGSFKTPNWPDRDYPAGVTCVWHIVAPKNQLIELKFEKFDVERDNYCRYDYVAVFNGGEVNDARRIGKYCGDSPPAPIVSERNELLIQFLSDLSLTADGFIGHYIFRPKKLPTTTEQPVTTTFPVTTGLKPTVALCQQKCRRTGTLEGNYCSSDFVLAGTVITTITRDGSLHATVSIINIYKEGNLAIQQAGKNMSARLTVVCKQCPLLRRGLNYIIMGQVGEDGRGKIMPNSFIMMFKTKNQKLLDALKNKQC
